Results taken from patent US20240279345A1, “ALPHA 5 BETA 1 INTEGRIN BINDING AGENTS AND USES THEREOF” (PASITHEA THERAPEUTICS CORP., priority 2021, published 2024).

B1: A2-7A05: anti-α5β1 antibody, VH SEQ ID NO:77, VL SEQ ID NO:78; tested as mouse hybridoma antibody and as human IgG4 chimera (antibody, V domains shown)
VH: QVQLQQPGAELVKPGASVKLSCKASGYTFTIYWINWVKQRPGQGLEWIGKIYPGSISTDYNEKFKSKATLTVDTSSSTAYMQLSSLTSDDSAVYYCAITGTGGLAYWGQGTLVTVSA
VL: ENVLTQSPAIMSASLGEKVTMTCRASSSVNYMYWYQQKSDASPKLWIYFTSSLAPGVPGRFSGSGSGNSYSLTISTMEGEDAATYYCQQFTTSPFTFGSGTKLEIK
modifications: A2-7A05 VH Sequence; A2-7A05 VL Sequence
notes: tested as mouse hybridoma antibody and as human IgG4 chimera
B2: A-15B08: anti-α5β1 antibody, VH SEQ ID NO:25, VL SEQ ID NO:26; tested as mouse hybridoma antibody and as human IgG4 chimera (antibody, V domains shown)
VH: QVQLKESGPGLVAPSQSLSITCTISGFSLTSYGVHWVRQPPGKGLEWLVVIWSDGSTTYNSTLKSRLSISKDNSKSQVFFKMNSLQTDDTAMYYCARHYDYDGDWFAYWGQGTLVTVSA
VL: QIVLTQSPAIMSASLGERVTMTCTASSRVSSNSLHWYQQKPGSSPKLWIYSTSNLASGVPARFSGSGSGTSYSLTISSMEAEDAATYYCHQYLRSPPTFGGGTKLEIK
modifications: A-15B08 VH Sequence; A-15B08 VL Sequence
notes: as for B1

Columns and labels:
[1] = target: rh-α5β1 protein bound to human FN protein (Homo sapiens, UniProt P05556+P08648); experiment: SPR dissociation of rh-α5β1 bound to FN; format: biochemical; settings: 1 μM antibody injected for 250s after 400 nM rh-α5β1; 25° C.
rh-α5β1 protein bound to human FN protein, sequence (P08648 42-894 limits assumed): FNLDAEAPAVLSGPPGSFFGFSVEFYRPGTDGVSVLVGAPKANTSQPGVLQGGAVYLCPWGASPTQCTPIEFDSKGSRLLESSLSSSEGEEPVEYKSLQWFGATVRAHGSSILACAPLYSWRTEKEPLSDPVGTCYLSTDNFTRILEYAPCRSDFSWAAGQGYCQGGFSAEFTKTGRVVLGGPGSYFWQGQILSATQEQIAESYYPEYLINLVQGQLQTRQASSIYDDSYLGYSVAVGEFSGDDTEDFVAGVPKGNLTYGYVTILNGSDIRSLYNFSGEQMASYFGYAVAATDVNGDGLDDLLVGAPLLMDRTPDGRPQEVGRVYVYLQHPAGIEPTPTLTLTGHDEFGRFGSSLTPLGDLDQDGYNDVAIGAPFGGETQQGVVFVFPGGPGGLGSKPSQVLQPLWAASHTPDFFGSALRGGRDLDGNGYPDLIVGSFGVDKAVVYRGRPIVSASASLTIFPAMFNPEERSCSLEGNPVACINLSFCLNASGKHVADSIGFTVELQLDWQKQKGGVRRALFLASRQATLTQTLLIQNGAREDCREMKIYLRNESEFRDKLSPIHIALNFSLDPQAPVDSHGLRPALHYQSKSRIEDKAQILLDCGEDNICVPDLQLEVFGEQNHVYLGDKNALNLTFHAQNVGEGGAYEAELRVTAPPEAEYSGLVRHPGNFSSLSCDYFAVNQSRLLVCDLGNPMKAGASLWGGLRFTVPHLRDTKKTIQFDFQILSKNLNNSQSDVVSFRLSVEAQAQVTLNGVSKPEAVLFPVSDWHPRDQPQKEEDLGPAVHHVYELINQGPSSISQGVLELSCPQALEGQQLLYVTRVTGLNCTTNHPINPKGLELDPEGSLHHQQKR
rh-α5β1 protein bound to human FN protein, sequence (P08648 895-995 limits assumed): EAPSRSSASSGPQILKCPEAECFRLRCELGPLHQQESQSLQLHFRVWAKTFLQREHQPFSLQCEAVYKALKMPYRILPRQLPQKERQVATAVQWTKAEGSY
rh-α5β1 protein bound to human FN protein, sequence (P05556 21-728 limits assumed): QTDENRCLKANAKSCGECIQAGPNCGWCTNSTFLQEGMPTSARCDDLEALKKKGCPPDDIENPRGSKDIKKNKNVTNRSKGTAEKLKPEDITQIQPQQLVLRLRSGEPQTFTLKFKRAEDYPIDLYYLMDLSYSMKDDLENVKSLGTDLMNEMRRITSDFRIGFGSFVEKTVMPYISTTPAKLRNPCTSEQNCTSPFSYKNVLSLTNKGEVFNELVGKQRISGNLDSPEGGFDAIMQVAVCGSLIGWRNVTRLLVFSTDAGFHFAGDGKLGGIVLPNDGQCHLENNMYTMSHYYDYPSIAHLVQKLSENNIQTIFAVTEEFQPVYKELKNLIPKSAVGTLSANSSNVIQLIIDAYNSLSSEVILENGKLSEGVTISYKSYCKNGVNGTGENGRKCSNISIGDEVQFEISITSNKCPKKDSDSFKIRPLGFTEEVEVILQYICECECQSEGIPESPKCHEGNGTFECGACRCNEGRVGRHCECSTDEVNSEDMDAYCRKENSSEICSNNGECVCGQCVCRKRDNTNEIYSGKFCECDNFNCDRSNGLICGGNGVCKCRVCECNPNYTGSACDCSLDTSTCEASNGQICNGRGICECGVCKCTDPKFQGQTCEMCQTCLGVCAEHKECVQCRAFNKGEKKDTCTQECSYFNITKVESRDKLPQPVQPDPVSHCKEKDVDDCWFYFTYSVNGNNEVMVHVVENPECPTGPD
Experimental: Surface Plasmon Resonance (SPR) and a cell-based assay were used to test the effect of the antibodies on the dissociation of rh-α5β1 protein bound to human FN protein. The antibodies tested are representatives of the two groups of antibodies identified in Example 6 that define two different epitope binding groups and have distinct ligand blocking properties. […] In addition, the small molecule antagonist cyclic RGD (cRGD; Creative-Peptides, Shirley, New York, 11967, cat. no. CP22175) was tested as a comparator that inhibits α5β1 integrin binding to FN by competing at the ligand binding pocket.
Description of the SPR method used: FN protein dissolved in water was manually printed onto the bare gold-coated (thickness 47 nm) PlexArray Nanocapture Sensor Chip (Plexera Bioscience, Seattle, WA) at 40% humidity. The chip was incubated in 80% humidity at 4° C. for overnight and rinsed with 10×PBST (0.1M phosphate buffer, 1.54M NaCl, pH7.4, 0.5% Tween20) for 10 minutes (min), 1×PBST (0.01M phosphate buffer pH7.4, 0.154M NaCl, 0.05% Tween20) for 10 min, and deionized water twice for 10 min. The chip was then blocked with 5% (w/v) non-fat milk in water overnight, and washed with 10×PBST for 10 min, 1×PBST for 10 min, and deionized water twice for 10 min before being dried under a stream of nitrogen prior to use. SPR measurements were performed using PlexArray HT (Plexera Bioscience, Seattle, WA), a high-throughput surface plasmon resonance imaging (SPRi) platform. Collimated light (660 nm) passes through the coupling prism, reflects off the SPR-active gold surface, and is received by the CCD camera. Buffers and samples were injected by a non-pulsatile piston pump into the 30 μL flow cell that was mounted on the coupling prim. […] SPR binding responses (a.u.) were recorded and plotted over time.

U87MG cells = experiment: Cellular detachment of U87MG cells from FN coated plates; format: cell-based; settings: for antibody concentration at which cellular detachment was seen: A-15B08 at 1 and 3 hours, A2-7A05 only obvious at 3 hours; for cellular detachment (cell rounding) of U87MG cells from FN coated plates: antibodies 2.0-0.016 μg/mL, cRGD 20-0.16 μM, 1 hour and 3 hours
Experimental: The A-15B08 and A2-7A05 antibodies and cRGD were also tested for their ability to induce dissociation of cellular α5β1 integrin from FN. U87MG cells (HTB-14™, ATCC, Manassas, VA) which were originally derived from a Glioblastoma tumor, are known to express α5β1 integrin, and adhere to FN coated plates. After an overnight incubation on FN coated plates, the U87MG cells formed a loosely packed monolayer and have extended spindle shapes. If the cells are induced to detach from the plates, by trypsin for example, the attachment points are released, and the cells become round. This type of change in morphology was used to assess whether the antibodies and the small molecule inhibitor cRGD can induce U87MG cells to dissociate from FN coated plates.
The following method was used to assess cellular detachment activity: A 96-well cell culture plate (Thermo Fisher Scientific, Waltham, MA, cat. no. 165306) was coated with FN (Human Fibronectin, R&D Systems, Minneapolis, MN 55413, cat. no. 1918-FN) by incubation of 50 uL per well 32 μg/mL FN in 1×PBS for 1 hour at 37° C., then washed 2× with EMEM media (ATCC, Manassas, VA, cat. no. 30-2003) supplemented with 10% Fetal Bovine Serum (FBS; ATCC, Manassas, VA, cat. no. 30-2021). U87MG cells were plated at 20,000 cells per well in EMEM media+10% FBS overnight to allow for maximum adherence. The next day the media was replaced with fresh media that included a 1:5 dilution series of antibodies A-15B08, A2-7A05 or isotype control IgG4 at concentrations of 2.0, 0.4, 0.08 and 0.016 μg/mL or cRGD at 20, 4, 0.8 and 0.16 μM. All tests were run in duplicate. Cell morphology was assessed, and images were captured using a 10× objective of an ECHO Rebel light microscope (ECHO, San Diego, CA).

rh-α5β1 = rh-α5β1 (Homo sapiens, UniProt P05556+P08648); experiment: Competition binding studies by Biolayer Interferometry (epitope groups); settings: for binding of rh-α5β1 complexed with antibody to C-14D12 on the sensor: C-14D12 immobilized on sensor; for Response (nm) / % Response: secondary mAb pre-mixed with 20 nM rh-α5β1; for % Response: relative to antigen alone; for epitope group: two epitope groups among 6 antibodies
rh-α5β1, sequence (P08648 42-894 limits assumed): as the sequence (P08648 42-894 limits assumed) above
rh-α5β1, sequence (P08648 895-995 limits assumed): as the sequence (P08648 895-995 limits assumed) above
rh-α5β1, sequence (P05556 21-728 limits assumed): as the sequence (P05556 21-728 limits assumed) above
Summary of the method: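 Pre-mixed competition BLI: FN-blocking lead antibodies A2-7A05, C-14D12 or A-15B08 loaded on sensors (700 s), quenched, baselined, then exposed 600 s to partner antibody preincubated 1 hr with rh-α5β1. Response relative to antigen alone: >120% = antibodies pair, <80% = antibodies block.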

[2] = antibody preincubated with rh-α5β1

Row | Molecule | effect on dissociation of rh-α5β1 protein bound to FN (SPR response) [1] | antibody concentration at which cellular detachment was seen (U87MG cells) | cellular detachment (cell rounding) of U87MG cells from FN coated plates (U87MG cells) | binding of rh-α5β1 complexed with antibody to A-15B08 on the sensor (rh-α5β1; antibody preincubated with rh-α5β1, A-15B08 immobilized on sensor) | binding of rh-α5β1 complexed with antibody to C-14D12 on the sensor (rh-α5β1; [2]) | Response (nm) (rh-α5β1; immobilized mAb A2-7A05) | % Response (rh-α5β1; immobilized mAb A2-7A05) | Response (nm) (rh-α5β1; immobilized mAb A-15B08) | % Response (rh-α5β1; immobilized mAb A-15B08) | Response (nm) (rh-α5β1; immobilized mAb C-14D12) | % Response (rh-α5β1; immobilized mAb C-14D12) | epitope group (rh-α5β1) | binding of rh-α5β1 complexed with antibody to A2-7A05 on the sensor (rh-α5β1; antibody preincubated with rh-α5β1, A2-7A05 immobilized on sensor)
1 | B1 | partial dissociation at a slower rate | 0.4 µg/mL | much lower level | able to bind | able to bind | −0.17 nm | −451.35% | 0.31 nm | 150.63% | 0.31 nm | 139.39% | one group | 
2 | B2 | rapid dissociation of the FN-α5β1 complex | 0.4 µg/mL | significant cell rounding |  | not able to bind | 0.25 nm | 666.22% | −0.15 nm | −73.81% | −0.09 nm | −38.40% | second group | able to bind
